Results on 20 molecules are retold here after patent US20150098989A1.

Non-standard residues stand in square brackets, D forms with d. Met(O) = CS(=O)CC[C@H](N)C(=O)O

Test [1] addresses SNARE complex (VAMP, syntaxin, SNAP-25 bound to GST) (UniProt P60880). In words: ELISA of SNARE complex formation (SNAP-25-GST, syntaxin, immobilized VAMP); compound at 0.5 mM. (In general: ELISA stands for enzyme-linked immunosorbent assay.)
Test [2] has the same target. In words: ELISA of SNARE complex formation (SNAP-25-GST, syntaxin, immobilized VAMP); compound at 2.5 mM.
Test [3] deals with SNARE complex (VAMP, syntaxin, SNAP-25) (UniProt P60880). In words: SDS-PAGE of SNARE complex (VAMP, syntaxin, SNAP-25), image analysis; compound at 1 mM.
Sequence of SNARE complex (VAMP, syntaxin, SNAP-25) (P60880 whole entry, one chain of several): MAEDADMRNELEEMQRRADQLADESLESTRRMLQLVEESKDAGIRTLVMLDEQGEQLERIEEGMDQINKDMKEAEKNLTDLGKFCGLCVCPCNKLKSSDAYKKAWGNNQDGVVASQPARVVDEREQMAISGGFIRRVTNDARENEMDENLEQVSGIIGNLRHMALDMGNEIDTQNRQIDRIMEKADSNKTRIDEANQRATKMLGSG
The target is the same in test [4]. As to the kind of experiment: SDS-PAGE of SNARE complex (VAMP, syntaxin, SNAP-25), image analysis; compound at 5 mM.

Sequence of SNARE complex (VAMP, syntaxin, SNAP-25 bound to GST) (P60880 whole entry, one chain of several): as above

B1: Ac-SEQ ID NO: 31-NH2 (peptide)
peptide: Ac-NHLKNWM-NH2
Take B1: the values for the % inhibition formation SNARE complex in test [1] and in test [2] were 26% and 59%, respectively.

B2: Ac-SEQ ID NO: 1-NH2 (peptide)
peptide: Ac-EHLKQWM-NH2
Turning to B2, the % inhibition formation SNARE complex in test [3] turned out to be 59%; in test [4], 100%; in test [1], 33%; in test [2], 63%.

B3: Ac-SEQ ID NO: 8-NH2 (peptide)
peptide: Ac-EHLKKWM-NH2
Take B3: the % inhibition formation SNARE complex in test [1] stood at 11%; in test [2] it was 44%.

B4: Ac-SEQ ID NO: 30-NH2 (peptide)
peptide: Ac-EHFLQWM-NH2
As for B4, the results for the % inhibition formation SNARE complex in test [1] and in test [2] were 24% and 71%, respectively.

B5: Ac-SEQ ID NO: 34-NH2 (peptide)
peptide: Ac-DHFLNWM-NH2
Turning to B5, the % inhibition formation SNARE complex was found to be 14% in test [3], 59% in test [4], 27% in test [1] and 85% in test [2].

B6: Ac-SEQ ID NO: 56-NH2 (peptide)
peptide: Ac-DHFLDW[Met(O)]-NH2
B6 registered a % inhibition formation SNARE complex in test [1] of 9%.

B7: Ac-SEQ ID NO: 32-NH2 (peptide)
peptide: Ac-NHLKHWM-NH2
With B7, in test [2], the % inhibition formation SNARE complex was found to be 19%.

B8: Ac-SEQ ID NO: 15-NH2 (peptide)
peptide: Ac-NHFLNWM-NH2
For B8, the % inhibition formation SNARE complex turned out to be 50% in test [3], 100% in test [4], 48% in test [1] and 42% in test [2].

B9: Ac-SEQ ID NO: 3-NH2 (peptide)
peptide: Ac-QHLHNVM-NH2
Consider B9, for which the results for the % inhibition formation SNARE complex in test [1] and in test [2] were 31% and 64%, respectively.

B10: Ac-SEQ ID NO: 24-NH2 (peptide)
peptide: Ac-DHFQQRM-NH2
B10: the % inhibition formation SNARE complex was found to be 48% in test [3], 100% in test [4], 41% in test [1] and 55% in test [2].

B11: Ac-SEQ ID NO: 13-NH2 (peptide)
peptide: Ac-RHFLQWM-NH2
In test [2], B11 had a % inhibition formation SNARE complex of 20%.

B12: Ac-SEQ ID NO: 12-NH2 (peptide)
peptide: Ac-QHLKEWM-NH2
As for B12, the % inhibition formation SNARE complex in test [1] was 20%; in test [2], 71%.

B13: Ac-SEQ ID NO: 25-NH2 (peptide)
peptide: Ac-DHFLDWM-NH2
B13: the % inhibition formation SNARE complex in test [3] amounted to 83%; in test [4] it was 100%; in test [1], 40%; in test [2] it was 71%.

B14: Ac-SEQ ID NO: 14-NH2 (peptide)
peptide: Ac-EDLKRWM-NH2
Turning to B14, the % inhibition formation SNARE complex in test [3] is 83%; in test [4], 100%; in test [1], 43%; in test [2], 67%.

B15: Ac-SEQ ID NO: 2-NH2 (peptide)
peptide: Ac-QDFLHWM-NH2
As to B15, the % inhibition formation SNARE complex stood at 37% in test [3], 80% in test [4], 26% in test [1] and 64% in test [2].

B16: Ac-SEQ ID NO: 22-NH2 (peptide)
peptide: Ac-DHLKKWM-NH2
B16: the % inhibition formation SNARE complex is 18% in test [1] and 72% in test [2].

B17: Ac-SEQ ID NO: 27-NH2 (peptide)
peptide: Ac-QHLKNWM-NH2
Turning to B17, the % inhibition formation SNARE complex in test [2] was found to be 14%.

B18: Ac-SEQ ID NO: 117-NH2 (peptide)
peptide: Ac-ENLKRWM-NH2
B18 came in with a % inhibition formation SNARE complex in test [2] of 65%.

B19: Ac-SEQ ID NO: 23-NH2 (peptide)
peptide: Ac-NDLKDWM-NH2
For B19, the values for the % inhibition formation SNARE complex in test [1] and in test [2] were 10% and 60%, respectively.

B20: Ac-SEQ ID NO: 116-NH2 (peptide)
peptide: Ac-EELKRWM-NH2
In test [2], B20 had a % inhibition formation SNARE complex of 69%.
